Laboratory results as given in publication PMC6717765, “p32 is a negative regulator of p53 tetramerization and transactivation” (Molecular Oncology, 2019).

B4: His-tagged p32 (wild type, recombinant) (natural protein, UniProt Q07021 74-282, looked up)
chain: LHTDGDKAFVDFLSDEIKEERKIQKHKTLPKMSGGWELELNGTEAKLVRKVAGEKITVTFNINNSIPPTFDGEEEPSQGQKVEEQEPELTSTPNFVVEVIKNDDGKKALVLDCHYPEDEVGQEDEAESDIFSIREVSFQSTGESEWKDTNYTLNTDSLDWALYDHLMDFLADRGVDNTFADELVELSTALEHQEYITFLEDLKSFVKSQ
notes: p32 (gC1qR/C1QBP/HABP1); also called His-p32; mature p32

How the values were obtained:
Conditions in all cases: both partners purified
[1] = target: T1, FLAG-tagged p53 (recombinant) (UniProt P04637 1-393); assay: pull-down; GST or GST-p32 fusions immobilised on glutathione-Sepharose beads, FLAG-tagged p53 in solution; overnight at 4 °C; 20 mM Tris/HCl pH 7.3, 0.2 M KCl, 0.2 mM EDTA, 20% glycerol, 0.01% Nonidet P-40; blot with anti-FLAG
T1 construct: p53; also called FLAG-p53; source: E. coli Rosetta 2 (DE3) pLysS, purified (anti-FLAG M2 agarose)
T1 sequence (P04637 whole entry, the tested form may be a part): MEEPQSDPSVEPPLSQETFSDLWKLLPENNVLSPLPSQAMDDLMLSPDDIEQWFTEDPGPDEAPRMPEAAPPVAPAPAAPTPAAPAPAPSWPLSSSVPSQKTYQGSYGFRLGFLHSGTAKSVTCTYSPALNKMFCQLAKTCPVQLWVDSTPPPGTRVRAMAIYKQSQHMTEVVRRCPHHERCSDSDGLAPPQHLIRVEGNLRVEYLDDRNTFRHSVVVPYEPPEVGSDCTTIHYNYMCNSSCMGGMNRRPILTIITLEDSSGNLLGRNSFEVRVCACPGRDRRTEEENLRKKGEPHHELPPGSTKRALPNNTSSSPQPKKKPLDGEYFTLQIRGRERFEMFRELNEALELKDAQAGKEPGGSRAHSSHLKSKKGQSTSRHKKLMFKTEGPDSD

[2] = target: B4; assay: pull-down; GST or GST-p53 fusions immobilised on glutathione-Sepharose beads, His-tagged p32 in solution; overnight at 4 °C; 20 mM Tris/HCl pH 7.3, 0.2 M KCl, 0.2 mM EDTA, 20% glycerol, 0.01% Nonidet P-40; blot with anti-His
[3] = target: T2, GST-p53 (UniProt P04637 1-393); assay: as above
T2 construct: p53; also called GST-fused p53; source: bacterially produced, purified on glutathione-Sepharose 4B beads
T2 sequence (P04637 whole entry, the tested form may be a part): as above

[4] = target: T1, FLAG-tagged p53 (recombinant); assay: cross-linking; purified FLAG-p53 with or without p32 (molar ratio 1:1, 1:2, 1:4) overnight at 4 °C; 10 mM Tris/HCl pH 7.5, 50 mM NaCl, 0.1 mM EDTA, 1 mM DTT, 5% glycerol; 0.01% glutaraldehyde 10 min at 22 °C; SDS/PAGE and anti-FLAG blot for monomers, dimers, tetramers

B1: GST-p32 (233-250) (domain or fragment, UniProt Q07021 233-250, looked up)
chain: WALYDHLMDFLADRGVDN
notes: source: expressed and purified on glutathione-Sepharose 4B beads
Question: Does B1 bind [1]?
Answer: Result: binds

B2: GST-p53 tetramerization domain (residues 328-368) (domain or fragment, UniProt P04637 328-368, looked up)
chain: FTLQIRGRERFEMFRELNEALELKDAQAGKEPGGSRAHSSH
notes: source: bacterially produced, purified on glutathione-Sepharose 4B beads
Question: Does B2 bind [2]?
Answer: Result: binds

B3: GST-p32 (233-250) D249A (domain or fragment, UniProt Q07021 233-250, looked up)
chain: WALYDHLMDFLADRGVAN
notes: also called GST-p32 D249A; source: expressed and purified on glutathione-Sepharose 4B beads
Question: Does B3 bind [1]?
Answer: Result: binds

Question: Does B4 bind [3]?
Answer: Result: binds

Question: Does B4 bind [4]?
Answer: Result: binds

B5: GST-p32 C-terminal domain (residues 233-282) (domain or fragment, UniProt Q07021 233-282, looked up)
chain: WALYDHLMDFLADRGVDNTFADELVELSTALEHQEYITFLEDLKSFVKSQ
notes: as for B1
Question: Does B5 bind [1]?
Answer: Result: binds
